We go through 17 sequences from a protein production outcome set (Wang et al. 2014).

A short description of this data set: label from the status in PepcDB records.
For the sequence “MKFFSVFILAILSILCMPLIASTTNYDETLTKIETLQHSDLPAAINLIKTIESEFGAMSRLQQGRVLLFKGAASIYSGQYQTAIELLGQAEALLKDSEMLFSAYSYEATAYIALRHFNDAFIAMGKSLGLIERIEDTNLKRASYLRLASLYSAMGISEEVATYATKALALASESDVKDICGARLYLSVHQLEIASYAQAFDEFKSTRSYCESSGYPLIANIALKGMGESSLRLNEPQLAISYLLDSLKGYESFNFELEINSVHELLSEAYLLLQDSTKAELHAQYVMNLVDDSSNTELKHGASGVLAKIYAQKQQFEQAYEYSRKEQHYNQLIFDESRMKTLAYQAAKFNADEQAREINLLNKERELYIAQQMVKEREYTNMLMFITILVGGLFFLAILLVVGNLQKRRFMRMAKMDALTGVLNRGAGQDLGENMFVQAAARGGDYCVILFDLDHFKRINDSYGHGTGDWALKKVVEVLKPHIRNGDVFARIGGEEFALFLPYANEAKGLDVAEQCRSRIEAIDTHLSGHKFTITASFGVSGMTKDDLSLDPLLHRADMALYAAKSNGRNCVSCYQDALMCDKRVTNLTSELARQP”, the protein production result is on record as “failed”. As for “MKFHVIDRENWNREQYFEHYLELKCTFSMTVNVDITLLIKKVHQKGIKFYPTFIYIISRIINKHKEFRTCFNDEGVLGYWEEMIPSYTIFHKDDKSFSSIWTDYSSDFRIFYKNYEEDMRCYASVHGLLTKENIPPNIFPISGIPWTSFTGFNLNINNDGDFLLPIITCGKYFNEENKIMLPVSLQVHHSVCDGYHVSRFIEDLQELSNSCNEWLK”, the entry is “failed”; as for “MKFQLYIQPKLDILQGNIVEYEILLRDDSEVPRFPLSELEAVLADEELYLTFCEWFSDAFFDVLKKYPNDRFAINIAPQQLFYMETLHMLDKLRSESHRITIEMTEDIFDVPAHKRHLNADDKDAFILNKIKIIHGLGYHVAVDDVGCGLNSLERVLSYLPYIIELKFSLIHFNNIDLEDLLLFIKAWANFAHKNNLDFVVEGIETKETMAILESHGVSIFQGYLVNKPFPV”, “failed”; as for “MKFSVIIPVYNASKFIDYCVESVLSQSYSDIEVILINDGSTDKSGEICEGFARKDNRVKVYHQENQGAAVARNHGIRKATGDYLLFPDSDDYYASSLGFEEINNQLEETKADVLIHDSFVERGNGTPDDLHSSLLREEVLKLEKIEFIEYLIKKDKLTRSAWTKVISRSFLSKNNILFPTVRQTEDTGFTAELVRLGNSFDWYEKQFYAYVKHDESVTAKRLPESIIHDSFSVIKTAVINGELIKDSRYREAYYSYLAYPYVVLIGQTKEAINRGVIKENTILNDLKQYSFLMKYNLNPKLKVIKHLYKLFGYLMIVFLLSVMMELTYRKQGV”, “failed”. As for “MKGKEIMEIKRILVSRTDKIGDLVLSIPSFFMLKKMYPNAELVVIVRKYNVDIVKNLPYIDRIVIIDEYSKAELLEKIAYFKADVFIALYNDSYIASLARASKAKIKIGPISKLSSFFTYNKGVLQKRSLSLKNEGQYNLDLVTKLDRKRFAILYELNTKLILTDENKKVADVYFKENSIEGKTLVVNPFIGGSAKNITDEQYISILKKIKEKMPDLNIIITSYTTDEERTEKLCKDIGKDKIFAFSNGASILNTASIIDRADVYFGASTGPTHIAGALGKKIVAIYPHKKTQSPTRWGVLGNSNVRYIIPDENNPNEDYKNPYFDNFTKDMEDKVVKAILEALK”, the entry is “failed”; as for “MKGKLQNIHPLGMTIIIGTLFARFATSMSIPFLAIYLTTVKGVSAGMTGAIIGTSALVGVFASFIGGNLSDRFGRKMIMLWSMIVWMFVFIGFSLADHVLSFFLLNALNGLCRSFFEPTSRALLSDLTKPEYRLLVYNLRYGAINVGVAIGPIVGLQIGSAKSTIPFLVAAGVYILYTAILAFQFKKYPMEKKKVSTEKPVTMLNAMRILRKDIVFLVALVGIILSNCGFSHLTTTVSQYFANAHIFQDGVKVFSYMLALNAIVVVVIQYPVIQICKKYTPLVSIMVGTLFVSGGLFGFGIIESTLGAAICTIIFTIGEVLMFSMTDVFIDDIAVAHLKGTYFGAMGFSGIGAVIGPWFGGVLLDYYGYQNGFVVFSALAIFSTVAFPVLLVTKSLLKKRYDGNSNIELHAK”, “failed”. As for “MKGKVVSYLAAKKYGFIQGDDGESYFLHFSELLDKKDEGKLVKGSMVHFDPTPTPKGLAAKAISLPEVFIRERLVDFFTTRDNRPKNGTVIASFPIATRFFKDPSEGRRHLEQLAKHCGCNAVLNVSFEKDTFSKGNYRYTVHAFKGELALVTEKVPADAQELVVASAELLEKRKADVEQAVKQMSEAENLARQKQLSGCLGTLAIITLIPLALVLTAIAVFPA”, the entry is “failed”. Regarding “MKGRIELGDVTPHNIKQLKRLNQVIFPVSYNDKFYKDVLEVGELAKLAYFNDIAVGAVCCRVDHSQNQKRLYIMTLGCLAPYRRLGIGTKMLNHVLNICEKDGTFDNIYLHVQISNESAIDFYQKFGFEIIETKKNYYKRIEPADAHVLQKSLRSPCAPPAGELQKAD”, the protein production result was “failed”.

For the sequence “MKGRLLQRLRQLSISNSLRGAFLTGALLTLIVSMVSLYSWHEQSSQVRYSLDEYFPRIHSAFLIEGNLNLAVDQLNEFLLAPNTTVRLQLRTQIIQHLDKIERLSQGLQLAERRQLAVILQDSRTLLAELDNALYNMFLVREKVSELSARLTGSSDDFTTELNSLVQDFTWQQGTLLDQIEANQGDAAQYLQRSREVQNEQQQVYTLAEIENQIVDDLRDRLNELKSGNNDGMLVETHIRYLENLKKTADENIRALDDWPSTITLRQTIDELLEIGMVKNKMPDTMRDYVAAQKALLDASRAREATLGRFRTLLEAQLGSSHQQMQTFNQRLEQIVRVSGGLILVATLLALLLAWGLNHYFIRSRLVKRFTALNQAVVQIGLGRTDSTIPVYGRDELGRIARLLRHTLGQLNMQRRQLEQEVAERKEIEADLRAMQDELIQTAKLAVVGQTMTTLAHEINQPLNALSMYLFTAGRAIEQGQSGQARNTLRKAEGLINRIDAIIRSLRQFYRRAELETPLYPVDARQTFVAAWELLAMRHQSRQGALSLPTDTVWVSGDEVRIQQVLVNVLANALDACSHDAVIAVTWQTQGEALEVYIADNGPGWPVALLPSLLKPFTTSKAVGLGIGLSISVSLMAQMKGDLRLASTLTRNACVVLQFSVTDVDDVE”, the protein production entry was “failed”.

Regarding “MKGYGEMAKNNPTRITAEPGKQEIIITREFDAPRELVFKAFTDPDLYTQWIGPRGFTTALKIFEPKNGGSWQYIQKDPEGNEYAFHGVNHDVTEPERIISTFEFEGLPEKGHVILDTARFEALPGDRTKLTSHSVFQTIEDRDGMLQSGMEEGINDSYERLDELLEKMKKLEHHHHHH”, the protein production result is “not failed”. In the case of “MKHAFDRFVQYLQKNYFSYWIVLGIDTFIALICTWVSFIGIHYITETSKEITSLFHILAISVISSILGSFLFHTYRNTIRFSQLKELWRLAGSALIKAVCIAMAIWLFLPQTGLHNSQKIVFVLFDGMLTFIAMVGFRIQLILVYELLLNMLNKKNMHILIYGIDDKSVALKVRLMNSSHYKVVGFCIYGTGDSIRRVADLPVYSFKDEECFNKLIHKKCIGGILFARYENTREEEDRLLQYCKRSGLKTLIAPSISEADENGSFHQWVRPIKIEDLLGRSEIHINMEEVMTEFCGKVVLVTGAAGSIGSELCRQLAQMNIKKLIMFDSAESPLHNVRLEFEKNYPDLDFVPVIGDVRVKERLRMVFETYQPQIIFHAAAYKHVPLMEENPCEAVLVNVVGSRQVADMAVEYGAEKMIMVSTDKAVNPTNVMGCSKRLAEIYVQSLGCAIREGKVKGHTKFITTRFGNVLGSNGSVIPRFKEQIENGGPVTVTHPDIIRFFMTIPEACRLVMEAATMGEGNEIFVFEMGKAVKIVDLATRMIELAGYRPGEDIEIEFTGLRPGEKLYEEVLSDKENTIPTENKKIMIAKVRHYEYTDILDTYTEFEKLSRSVQIMDTVKLMKRVVPEFKSKNSPRFEVLDR” it was “failed”; in that of “MKHASHKATTVSRQKFSLAKALFASGKGSHSVRAVRAVQSAGSDAVVLGLDPAIAEKINEIAPQTRRSIREAARAAERRSHILASASLAALVGTAAGALAFSNNEDATNSFVADPATTTTQIKRISDVTAASRSEARTDLSSSSVTAQSTNEGGWGLSNSDSTLDAKLMNRNNANNPVVSALVDADGDAVPAGFNPNHAVGTNSNNYPWGQCTWYAYQRRAELGLPSSGNFGNGGAWAASASALGYWVDNTPRHVGDAVVFAPGQADADGAYGHVAVLEKINADGSIEISESNAKGLGVISTRTFSAAEAGKFQYVHY”, “failed”.

On to “MKHDKKNSKIIPFPNVKERLVHKGMGALKEKNYHEALRLFSEAKRYNDEESDIYLGMAICLLEIGELEEAKGICEKMLKEGHGHYFTVLQVYMTILIQLRQYEKVKETIEAVLEENKLPPESAEQFYKLLDFSRKMTEDPGPEDITEDLPETEEVDQERLLNDTEEQVKLLHGLKDRNLTSYIGLLKTILQNPSAHPVVKTMILQLLAESDHEKPTLVAKFGDSMTINPTETVKPDDMPILKHVLSVLDDTLGNENPTLYQAVEELWRRHIYVLYPFQPKYSNRELWAAALHKVGYEMHGIDIDKEELHILYEFNDRQLDEACALIKDIEEISYL”, for which the protein production result is “failed”. In the case of “MKHIFRFKNYFFHSKNNQLKRLLLVAFLLTGLWLTPQQGRVWGQEQPFVVKKIDLSQYGAAASIAQDPESKQLAIGFYNCNLIFLDANLNQDQKNNLFLKNCKRFFRARYGEFGSIPFLISSIYTGSSVLHNSQENFDIPLHKAAVTDSLILQDYLLSSSDDGSVTISRLISLSPPEVNTFKLYQSIGVARNLAFTHTSNPEVGKVAVSYDTGEIAIFNIDHDTARNPVEPSTFKTINSRINTFKFTPDGAKLLIGYFTGELVELDLATGAHKTLAKVNSWLNALDINSENLVAIADDQGFVKIISLTTGKIVEEHKISTTGINAVIFTDDQTVVAADATGMIYQGKLAGSN” it was “failed”.

Consider “MKHKHGWASVVCCFVLFIVVCLSLTMHVQGAFRAAGHPEIGLLFFTLPGAVASFCSHRREVIRPLIGAMLAAPFCLVLMRVVFMPTRSFWQELAWLFSAVFWCALGALCYLFISSLFSHRRKKRR”, for which the protein production result is given as “failed”. As for “MKHLVTTALAYTNGPLHLGHARSTYIPADIYTRYLRLKGEEVIHVGGTDNHGVPITLTAEREGVKPIDIVDRYHNAIKADLDSLNVSFDTFGRTHSDIHIETAQEFYSKLKENGYIYEKEIEQFYCEKCDMYLADRYVEGICPFCEGEARGDHCEVCGRHLEPTELVNPYCIHCNSKPEIKRTTHYFFKLSAMQDVLKEYIENSPEMPEHVKNMALRWIEELHDWDVSRNIKWGVPIPGCDDQVMYVWIEAPIGYVSFTKQLGDLWKDYWLENTGDSKISHFIGKDITVHHAVFWPGILKGIGGYKMPNAVVSGGYLTLENKKMSTSKNWVVWVKDFIENFSSDYLRYFFMINAPLNRDTDFSWDDFQKRINTELIDIIGNFTHRTLVFTERKFGSTPVVDLNQLKDEDKKLISKCEDTLNRVDSLIREYNFKDALMEIIHLAKEGNGYFQGMAPWAIKDEERLKEVMYTCSVALKYIVYLLSSFMPEKTALLLEYMNEELDLEVRGNPLKKPKVIFTKVSDEDISRMKENLMKATKKAETKSDEKSKKVKSGEKMDIIDIDYFGNIDLRVGQILEVEEVPRSKKLYKITADLGDEKRQIVSGLKGAYEAEELVGKKVIIICNLKPAKLCGVESQGMLLAAEDDSIVSLLALDRDLPVGSKIH”, the entry is “failed”. As for “MKHSGFQAKRLIQLALPVLIAQVTQTMMGFIDTVMAGRVSAVDMAAVAVGTSLWLPAILFVQGLLMAFTPLFAHHNGANNQKAIQPLAFQGAYLALIGGLGVMVFLASAPLVLSHMNLEPQLYNLTIGYIDGILWGAPAFVLYQVLRGCSEGISYTLPTMVIGFVGLAVNIPANYIFIYGHFGIPAMGGAGCGIATALVFWAMLIAMAIYMQFHKKFAALAPFSQFHRPDFATMKKMTKLGLPIAMALFFEVSLFAIIALLLAPLGATVVASHQIALNFSAIVFMLPLSIGIAVSIRIGYYLGRDRADISAVVAKVGLLLALSLALSTAILTVLFRFQIAELYNSDPEVVVLAGSLMLMAALYQLSDSVQVVAAGALRGYKDTRSAFYITLFSYWGIGMSLGYTLAYTDFIVPAMGAHGFWTGLIAGLTSAALLFFIRLRYIQKHRVHLSLIEGDSVHH”, the entry is “failed”.
